Experimental findings from paper PMC10786891, “Massively parallel profiling of RNA-targeting CRISPR-Cas13d” are described below.

T1: EsCas13d, nuclease-dead (Eubacterium siraeum, UniProt B0MS50, R295A;H300A;R849A;H854A)
T1 sequence: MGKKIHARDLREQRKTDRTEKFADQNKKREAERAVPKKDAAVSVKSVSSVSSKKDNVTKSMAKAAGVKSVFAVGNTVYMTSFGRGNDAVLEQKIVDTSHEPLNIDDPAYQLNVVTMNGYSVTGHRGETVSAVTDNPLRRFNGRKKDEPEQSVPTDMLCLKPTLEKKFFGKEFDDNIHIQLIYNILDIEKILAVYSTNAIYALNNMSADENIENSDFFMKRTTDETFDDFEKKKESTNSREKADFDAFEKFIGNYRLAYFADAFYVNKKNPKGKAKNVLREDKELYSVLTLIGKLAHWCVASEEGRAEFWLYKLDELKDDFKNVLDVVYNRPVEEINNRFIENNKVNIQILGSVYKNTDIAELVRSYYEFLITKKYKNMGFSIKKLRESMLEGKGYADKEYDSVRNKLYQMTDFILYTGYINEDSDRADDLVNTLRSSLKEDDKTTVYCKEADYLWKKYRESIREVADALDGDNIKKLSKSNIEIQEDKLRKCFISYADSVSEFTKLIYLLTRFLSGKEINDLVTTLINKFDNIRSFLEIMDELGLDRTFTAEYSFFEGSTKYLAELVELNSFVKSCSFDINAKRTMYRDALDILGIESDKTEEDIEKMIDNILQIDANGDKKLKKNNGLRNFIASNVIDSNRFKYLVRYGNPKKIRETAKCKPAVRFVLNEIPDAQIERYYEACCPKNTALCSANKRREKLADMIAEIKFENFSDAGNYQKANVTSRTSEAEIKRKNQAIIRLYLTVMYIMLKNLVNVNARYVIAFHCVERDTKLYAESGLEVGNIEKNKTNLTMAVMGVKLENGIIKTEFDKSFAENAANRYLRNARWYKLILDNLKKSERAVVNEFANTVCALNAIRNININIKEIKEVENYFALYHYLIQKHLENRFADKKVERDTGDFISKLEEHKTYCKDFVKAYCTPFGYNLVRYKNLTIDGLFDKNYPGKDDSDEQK

B1: target 3 insU 3' of 5 (mixed)
RNA 1: CACCCGUGCAAAAUUGCAGGGGUCUAAAACGACCUGAAUAUUUCAGAUCAAA
RNA 2: GGGAAUGGAUCCACAUCUACGAAUUCGUUUUUGAUCUGAAAUAUUCAUGGUCUGCAGAUCGGAAGAGCACACGU
B2: target 3 insA 3' of 15,insC 3' of 11 (mixed)
RNA 1: CACCCGUGCAAAAUUGCAGGGGUCUAAAACGACCUGAAUAUUUCAGAUCAAA
RNA 2: GGGAAUGGAUCCACAUCUACGAAUUCGUUUUUGAUCUAGAAACUAUUCAGGUCUGCAGAUCGGAAGAGCACACGU
B3: target 3 G4C,C6A (mixed)
RNA 1: CACCCGUGCAAAAUUGCAGGGGUCUAAAACGACCUGAAUAUUUCAGAUCAAA
RNA 2: GGGAAUGGAUCCACAUCUACGAAUUCGUUUUUGAUCUGAAAUAUUAACGUCUGCAGAUCGGAAGAGCACACGU
B4: target 3 C6G,U8A (mixed)
RNA 1: CACCCGUGCAAAAUUGCAGGGGUCUAAAACGACCUGAAUAUUUCAGAUCAAA
RNA 2: GGGAAUGGAUCCACAUCUACGAAUUCGUUUUUGAUCUGAAAUAAUGAGGUCUGCAGAUCGGAAGAGCACACGU
B5: target 3 A5C,U22C (mixed)
RNA 1: CACCCGUGCAAAAUUGCAGGGGUCUAAAACGACCUGAAUAUUUCAGAUCAAA
RNA 2: GGGAAUGGAUCCACAUCUACGAAUUCGUUCUUGAUCUGAAAUAUUCCGGUCUGCAGAUCGGAAGAGCACACGU
B6: target 3 A5G,U8A (mixed)
RNA 1: CACCCGUGCAAAAUUGCAGGGGUCUAAAACGACCUGAAUAUUUCAGAUCAAA
RNA 2: GGGAAUGGAUCCACAUCUACGAAUUCGUUUUUGAUCUGAAAUAAUCGGGUCUGCAGAUCGGAAGAGCACACGU
B7: target 3 G3U,A12G (mixed)
RNA 1: CACCCGUGCAAAAUUGCAGGGGUCUAAAACGACCUGAAUAUUUCAGAUCAAA
RNA 2: GGGAAUGGAUCCACAUCUACGAAUUCGUUUUUGAUCUGAGAUAUUCAGUUCUGCAGAUCGGAAGAGCACACGU
B8: target 3 insU 3' of 13,insA 3' of 6 (mixed)
RNA 1: CACCCGUGCAAAAUUGCAGGGGUCUAAAACGACCUGAAUAUUUCAGAUCAAA
RNA 2: GGGAAUGGAUCCACAUCUACGAAUUCGUUUUUGAUCUGAUAAUAUUCAAGGUCUGCAGAUCGGAAGAGCACACGU
B9: target 3 A5U,U22C (mixed)
RNA 1: CACCCGUGCAAAAUUGCAGGGGUCUAAAACGACCUGAAUAUUUCAGAUCAAA
RNA 2: GGGAAUGGAUCCACAUCUACGAAUUCGUUCUUGAUCUGAAAUAUUCUGGUCUGCAGAUCGGAAGAGCACACGU
B10: target 3 G4U,A12U (mixed)
RNA 1: CACCCGUGCAAAAUUGCAGGGGUCUAAAACGACCUGAAUAUUUCAGAUCAAA
RNA 2: GGGAAUGGAUCCACAUCUACGAAUUCGUUUUUGAUCUGAUAUAUUCAUGUCUGCAGAUCGGAAGAGCACACGU
B11: target 3 insA 3' of 14,insU 3' of 4 (mixed)
RNA 1: CACCCGUGCAAAAUUGCAGGGGUCUAAAACGACCUGAAUAUUUCAGAUCAAA
RNA 2: GGGAAUGGAUCCACAUCUACGAAUUCGUUUUUGAUCUGAAAAUAUUCAGUGUCUGCAGAUCGGAAGAGCACACGU
B12: target 3 A5U,A18G (mixed)
RNA 1: CACCCGUGCAAAAUUGCAGGGGUCUAAAACGACCUGAAUAUUUCAGAUCAAA
RNA 2: GGGAAUGGAUCCACAUCUACGAAUUCGUUUUUGGUCUGAAAUAUUCUGGUCUGCAGAUCGGAAGAGCACACGU
B13: target 3 insC 3' of 7,insU 3' of 3 (mixed)
RNA 1: CACCCGUGCAAAAUUGCAGGGGUCUAAAACGACCUGAAUAUUUCAGAUCAAA
RNA 2: GGGAAUGGAUCCACAUCUACGAAUUCGUUUUUGAUCUGAAAUAUUCCAGGUUCUGCAGAUCGGAAGAGCACACGU
B14: target 3 G4A,A9G (mixed)
RNA 1: CACCCGUGCAAAAUUGCAGGGGUCUAAAACGACCUGAAUAUUUCAGAUCAAA
RNA 2: GGGAAUGGAUCCACAUCUACGAAUUCGUUUUUGAUCUGAAAUGUUCAAGUCUGCAGAUCGGAAGAGCACACGU
B15: target 3 insA 3' of 22,insU 3' of 5 (mixed)
RNA 1: CACCCGUGCAAAAUUGCAGGGGUCUAAAACGACCUGAAUAUUUCAGAUCAAA
RNA 2: GGGAAUGGAUCCACAUCUACGAAUUCGUUUAUUGAUCUGAAAUAUUCAUGGUCUGCAGAUCGGAAGAGCACACGU
B16: target 3 U2C,G4C (mixed)
RNA 1: CACCCGUGCAAAAUUGCAGGGGUCUAAAACGACCUGAAUAUUUCAGAUCAAA
RNA 2: GGGAAUGGAUCCACAUCUACGAAUUCGUUUUUGAUCUGAAAUAUUCACGCCUGCAGAUCGGAAGAGCACACGU
B17: target 3 del3,del4 (mixed)
RNA 1: CACCCGUGCAAAAUUGCAGGGGUCUAAAACGACCUGAAUAUUUCAGAUCAAA
RNA 2: GGGAAUGGAUCCACAUCUACGAAUUCGUUUUUGAUCUGAAAUAUUCAUCUGCAGAUCGGAAGAGCACACGU
B18: target 3 G3U,U8C (mixed)
RNA 1: CACCCGUGCAAAAUUGCAGGGGUCUAAAACGACCUGAAUAUUUCAGAUCAAA
RNA 2: GGGAAUGGAUCCACAUCUACGAAUUCGUUUUUGAUCUGAAAUACUCAGUUCUGCAGAUCGGAAGAGCACACGU
B19: target 3 insA 3' of 8,insC 3' of 5 (mixed)
RNA 1: CACCCGUGCAAAAUUGCAGGGGUCUAAAACGACCUGAAUAUUUCAGAUCAAA
RNA 2: GGGAAUGGAUCCACAUCUACGAAUUCGUUUUUGAUCUGAAAUAUAUCACGGUCUGCAGAUCGGAAGAGCACACGU
B20: target 3 C1U,U7C (mixed)
RNA 1: CACCCGUGCAAAAUUGCAGGGGUCUAAAACGACCUGAAUAUUUCAGAUCAAA
RNA 2: GGGAAUGGAUCCACAUCUACGAAUUCGUUUUUGAUCUGAAAUAUCCAGGUUUGCAGAUCGGAAGAGCACACGU
B21: target 3 insU 3' of 6,insA 3' of 3 (mixed)
RNA 1: CACCCGUGCAAAAUUGCAGGGGUCUAAAACGACCUGAAUAUUUCAGAUCAAA
RNA 2: GGGAAUGGAUCCACAUCUACGAAUUCGUUUUUGAUCUGAAAUAUUCUAGGAUCUGCAGAUCGGAAGAGCACACGU
B22: target 3 G19U,U20A (mixed)
RNA 1: CACCCGUGCAAAAUUGCAGGGGUCUAAAACGACCUGAAUAUUUCAGAUCAAA
RNA 2: GGGAAUGGAUCCACAUCUACGAAUUCGUUUUAUAUCUGAAAUAUUCAGGUCUGCAGAUCGGAAGAGCACACGU
B23: target 3 insA 3' of 6,insU 3' of 1 (mixed)
RNA 1: CACCCGUGCAAAAUUGCAGGGGUCUAAAACGACCUGAAUAUUUCAGAUCAAA
RNA 2: GGGAAUGGAUCCACAUCUACGAAUUCGUUUUUGAUCUGAAAUAUUCAAGGUCUUGCAGAUCGGAAGAGCACACGU
B24: target 3 insU 3' of 5,insU 3' of 4 (mixed)
RNA 1: CACCCGUGCAAAAUUGCAGGGGUCUAAAACGACCUGAAUAUUUCAGAUCAAA
RNA 2: GGGAAUGGAUCCACAUCUACGAAUUCGUUUUUGAUCUGAAAUAUUCAUGUGUCUGCAGAUCGGAAGAGCACACGU
B25: target 3 insA 3' of 22,insU 3' of 3 (mixed)
RNA 1: CACCCGUGCAAAAUUGCAGGGGUCUAAAACGACCUGAAUAUUUCAGAUCAAA
RNA 2: GGGAAUGGAUCCACAUCUACGAAUUCGUUUAUUGAUCUGAAAUAUUCAGGUUCUGCAGAUCGGAAGAGCACACGU
B26: target 1 A9U,C22U (mixed)
RNA 1: CACCCGUGCAAAAAUGCAGGGGUCUAAAACUGAGCGGAUAACCUCUCUAUGG
RNA 2: GGGAAUGGAUCCACAUCUACGAAUUCGUAUCAUAGAGAGGUUUUCCGCUCACCGAGAUCGGAAGAGCACACGU
B27: target 1 C21A,C22U (mixed)
RNA 1: CACCCGUGCAAAAAUGCAGGGGUCUAAAACUGAGCGGAUAACCUCUCUAUGG
RNA 2: GGGAAUGGAUCCACAUCUACGAAUUCGUAUAAUAGAGAGGUUAUCCGCUCACCGAGAUCGGAAGAGCACACGU

The target in this series is T1, EsCas13d, nuclease-dead. Briefly: crRNA (strand 1, pre-loaded); Mg2+; 40 mM Tris-HCl pH 7.5, 150 mM NaCl, 6 mM MgCl2, 1 mM DTT, 0.1% Tween-20, 0.2 mg/ml BSA; 25 C; 10 min per concentration, then washed. To be noted: tags: His6-TwinStrep-SUMO cleaved; N-terminal SNAP kept (SNAP-Surface 488); label: 3' end held by stalled T7 RNA polymerase.
For the molecule B1, the Kd (usually the equilibrium constant for the complex coming apart) is 6.55 ± 0.65 nM.
On to B2, for which the Kd was about 90 nM.
For the molecule B3, the equilibrium dissociation constant (Kd) is 26.6 ± 1.85 nM.
Turning to B4, the equilibrium dissociation constant (Kd) came to 81.5 ± 10 nM.
B5 displayed a Kd of 84 ± 31 nM.
As for B6, the Kd stood at 80.5 ± 15 nM.
As for B7, binding was characterised by a dissociation constant (Kd) of 86 ± 15 nM.
With B8, the Kd turned out to be 99 ± 25 nM.
Regarding B9, binding was characterised by a dissociation constant (Kd) of 70.5 ± 20 nM.
The molecule B10 gave a Kd of 52 ± 13.5 nM.
Turning to B11, binding was characterised by a dissociation constant (Kd) of 43.5 ± 14.5 nM.
Take B12: binding was characterised by a dissociation constant (Kd) of 117 ± 25 nM.
With B13 the figure was 49.5 ± 10 nM; with B14, 52.5 ± 7 nM; with B15, 11.1 ± 1.15 nM.
With B16 the figure was 18.4 ± 2.75 nM.
For B17, the equilibrium dissociation constant (Kd) turned out to be 13.9 ± 1.4 nM.
B18: the dissociation constant Kd was 103 ± 17.5 nM.
Consider B19, for which the affinity, expressed as Kd, was 51 ± 5 nM.
Regarding B20, the Kd is 58.5 ± 16 nM.
The molecule B21 yielded a dissociation constant (Kd) of 11.2 ± 1.3 nM.
On to B22, for which the Kd was found to be 90 ± 27 nM.
Molecule B23 displayed a Kd of 31.9 ± 5.8 nM.
With B24 the figure was 2 ± 0.23 nM.
The molecule B25 came in with a Kd of 23.1 ± 3.65 nM.
With B26, the dissociation constant Kd is 24 ± 4 nM.
Regarding B27, the dissociation constant (Kd) was 45 ± 7 nM.
